Publication PMC10715038 (2023)

Target: SARS-CoV-2 WHU01 RBD, monomeric (SARS-CoV-2 (WHU01), UniProt P0DTC2)
Assay: SPR

B1: horse ACE2 extracellular domain, human IgG1 Fc fusion protein (Fc fusion)
chain: QSTTEDLAKTFLEKFNSEAEELSHQSSLASWSYNTNITDENVQKMNEAGARWSAFYEEQCKLAKTYPLEEIQNLTVKRQLQALQQSGSSVLSADKSKLNEILNTMSTIYSTGKVCNPSNPQECLLLEPGLDAIMENSKDYNQRLWAWEGWRSEVGKQLRPLYEEYVVLKNEMARANNYEDYGDYWRGDYEAEGPSGYDYSRDQLIEDVERTFAEIKPLYEHLHAYVRAKLMDTYPSHINPTGCLPAHLLGDMWGRFWTNLYSLTVPFGQKPNIDVTDAMVDQSWDAKRIFEEAEKFFVSVGLPNMTQGFWENSMLTEPGDGRKVVCHPTAWDLGKGDFRIKMCTKVTMDDFLTAHHEMGHIQYDMAYAVQPYLLRNGANEGFHEAVGEIMSLSAATPNHLKAIGLLPPDFYEDSETEINFLLKQALTIVGTLPFTYMLEKWRWMVFKGEIPKEEWMKKWWEMKREIVGVVEPVPHDETYCDPAALFHVANDYSFIRYYTRTIYQFQFQEALCQTAKHEGPLHKCDISNSTEAGQKLLQMLSLGKSEPWTLALERIVGVKNMDVRPLLNYFEPLFTWLKDQNKNSFVGWSTNWSPYADQSIKVRISLKSALGEKSYEWNDNEMYLFQSSVAYAMRVYFLKAKNQTILFGEEDVWVSDLKPRISFNFFVTSPKNASDIIPRTDVEEAIRMSRSRINDAFRLDDNTLEFLGIQPTLGPPYQPPVTV
- Kd: 89.8 nM

B2: cat ACE2 extracellular domain, human IgG1 Fc fusion protein (Fc fusion)
chain: QSTTEELAKTFLEKFNHEAEELSYQSSLASWNYNTNITDENVQKMNEAGAKWSAFYEEQSKLAKTYPLAEIHNTTVKRQLQALQQSGSSVLSADKSQRLNTILNAMSTIYSTGKACNPNNPQECLLLEPGLDDIMENSKDYNERLWAWEGWRAEVGKQLRPLYEEYVALKNEMARANNYEDYGDYWRGDYEEEWTDGYNYSRSQLIKDVEHTFTQIKPLYQHLHAYVRAKLMDTYPSRISPTGCLPAHLLGDMWGRFWTNLYPLTVPFGQKPNIDVTDAMVNQSWDARRIFKEAEKFFVSVGLPNMTQGFWENSMLTEPGDSRKVVCHPTAWDLGKGDFRIKMCTKVTMDDFLTAHHEMGHIQYDMAYAVQPFLLRNGANEGFHEAVGEIMSLSAATPNHLKTIGLLSPGFSEDSETEINFLLKQALTIVGTLPFTYMLEKWRWMVFKGEIPKEQWMQKWWEMKREIVGVVEPVPHDETYCDPASLFHVANDYSFIRYYTRTIYQFQFQEALCRIAKHEGPLHKCDISNSSEAGKKLLQMLTLGKSKPWTLALEHVVGEKKMNVTPLLKYFEPLFTWLKEQNRNSFVGWNTDWRPYADQSIKVRISLKSALGDEAYEWNDNEMYLFRSSVAYAMREYFSKVKNQTIPFVEDNVWVSNLKPRISFNFFVTASKNVSDVIPRSEVEEAIRMSRSRINDAFRLDDNSLEFLGIQPTLSPPYQPPVT
- Kd: 554 nM
